Legend:
Conditions in all cases: Brevibacillus brevis
[1] = substrate: CC(=O)NCCSC(=O)[C@H](CC(C)C)NC(=O)[C@H](CCCN)NC(=O)[C@@H](NC(=O)[C@H](Cc1ccc(O)cc1)NC(=O)[C@@H](NC(=O)[C@H](CC(N)=O)NC(=O)[C@@H](Cc1ccccc1)NC(=O)[C@H](Cc1ccccc1)NC(=O)[C@@H]1CCCN1C(=O)[C@H](N)Cc1ccccc1)C(C)C)C(C)C; assay: (§1) Apparent kinetic constant (Km) determined for tyrocidine thioesterase amplified from Bacillus brevis (ATCC8185)
[2] = substrate: CC(=O)NCCSC(=O)[C@H](CC(C)C)NC(=O)[C@H](CCCN)NC(=O)[C@@H](NC(=O)[C@H](Cc1ccc(O)cc1)NC(=O)[C@H](CC(C)C)NC(=O)[C@H](CC(N)=O)NC(=O)[C@@H](Cc1ccccc1)NC(=O)[C@H](Cc1ccccc1)NC(=O)[C@@H]1CCCN1C(=O)[C@H](N)Cc1ccccc1)C(C)C; assay: as §1
[3] = substrate: CC(=O)NCCSC(=O)[C@H](CC(C)C)NC(=O)[C@H](CCCN)NC(=O)[C@@H](NC(=O)[C@H](Cc1ccc(O)cc1)NC(=O)[C@H](CCC(N)=O)NC(=O)[C@H](CC(N)=O)NC(=O)[C@@H](Cc1ccccc1)NC(=O)[C@H](Cc1ccccc1)NC(=O)[C@H](CC(N)=O)NC(=O)[C@H](N)Cc1ccccc1)C(C)C; assay: as §1
[4] = substrate: CC(=O)NCCSC(=O)[C@H](CC(C)C)NC(=O)[C@H](CCCN)NC(=O)[C@@H](NC(=O)[C@H](Cc1ccc(O)cc1)NC(=O)[C@H](CCC(N)=O)NC(=O)[C@H](CC(N)=O)NC(=O)[C@H](CS)NC(=O)[C@H](Cc1ccccc1)NC(=O)[C@@H]1CCCN1C(=O)[C@H](N)Cc1ccccc1)C(C)C; assay: as §1
[5] = substrate: CC(=O)NCCSC(=O)[C@H](CC(C)C)NC(=O)[C@H](CCCN)NC(=O)[C@H](CC(N)=O)NC(=O)[C@H](Cc1ccc(O)cc1)NC(=O)[C@H](CCC(N)=O)NC(=O)[C@H](CC(N)=O)NC(=O)[C@@H](Cc1ccccc1)NC(=O)[C@H](Cc1ccccc1)NC(=O)[C@@H]1CCCN1C(=O)[C@H](N)Cc1ccccc1; assay: as §1

B1: Thioesterase GrsT homolog tycF (Brevibacillus brevis), O30412 (protein)
chain: MKLFCFPYAGGLPGIYYSWKSRLPPTFLEIDAFEVRPHIPQPNRDVFLPTSFYELLEDVCDRITPALTETPFAFFGHSMGGLVAFELTRKLMQKGAPLPQHLFLSASRAPHAYGKLAKTYNLPHDEFVEALRKLGGTPDDVLENQELLELFLPILRADFQAVQTYEMNPDLPRQVPVNMTVLYGTEDTIALEDIWAWRDYCQGACQFFPVSGGHFFIHHQTSPILEIIQNVLKEEKTVAIHSSF
[1]
  Km: 54 µM
[2]
  Km: 135 µM
[3]
  Km: 82 µM
[4]
  Km: 27 µM
[5]
  Km: 55 µM

Reference: ChEMBL document CHEMBL1135258, “Substrate spectrum of tyrocidine thioesterase probed with randomized peptide N-acetylcysteamine thioesters” (Bioorg Med Chem Lett, 2002)
